Experimental data: article PMC12017343, “Extended repertoire of CXC chemokines acting as agonists and antagonists of the human and murine atypical chemokine receptor ACKR2” (Journal of Leukocyte Biology, 2025)

T1: mouse ACKR2 N-terminally fused with the NanoLuc (mouse, UniProt O08707 1-378)
T1 construct: atypical chemokine receptor 2 (ACKR2), mouse; also called mACKR2; NanoLuc-ACKR2; source: HEK293T, stably expressing (pIRES-puromycin vector), on cells; not shown: NanoLuc, N-terminal, kept
T1 sequence (looked up): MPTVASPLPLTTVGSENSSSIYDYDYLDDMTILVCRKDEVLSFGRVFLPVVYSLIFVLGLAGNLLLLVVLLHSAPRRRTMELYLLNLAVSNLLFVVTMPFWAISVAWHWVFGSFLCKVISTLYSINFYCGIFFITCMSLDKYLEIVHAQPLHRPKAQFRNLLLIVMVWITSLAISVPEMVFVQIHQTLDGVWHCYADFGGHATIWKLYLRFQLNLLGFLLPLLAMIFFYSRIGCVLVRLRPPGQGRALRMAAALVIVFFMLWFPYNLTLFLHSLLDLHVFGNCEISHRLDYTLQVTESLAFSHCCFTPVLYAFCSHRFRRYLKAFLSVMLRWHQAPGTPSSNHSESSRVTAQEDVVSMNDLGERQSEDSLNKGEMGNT

B1: mouse CXCL10 (ligand, UniProt P17515 22-98, looked up)
chain: IPLARTVRCNCIHIDDGPVRMRAIGKLEIIPASLSCPRVEIIATMKKNDEQRCLNPESKTIKNLMKAFSQKRSKRAP
notes: CXCL10, mouse, native chemokine; source: bought: Protein Foundry
B2: mouse CXCL5 (ligand)
chain: APSSVIAATELRCVCLTVTPKINPKLIANLEVIPAGPQCPTVEVIAKLKNQKEVCLDPEAPVIKKIIQKILGSDKKKAKRNALAVERTASVQ
modifications: The paper prints no limits. The full-length mature chain after the signal peptide was taken for the 'native' chemokine (Protein Foundry); the commercial form could instead be GCP-2(1-78), 41-118, or …
B3: mouse CXCL11 (ligand, UniProt Q9JHH5 22-100, looked up)
chain: FLMFKQGRCLCIGPGMKAVKMAEIEKASVIYPSNGCDKVEVIVTMKAHKRQRCLDPRSKQARLIMQAIEKKNFLRRQNM
notes: CXCL11, mouse, native chemokine; source: bought: Protein Foundry

Each binder was assayed against T1, mouse ACKR2 N-terminally fused with the … (assay: FRET or BRET; NanoBRET competition binding, concentration-response: increasing chemokine (highest 300 nM) against LIH222-AZ594 (5 nM for human, 10 nM for mouse) on HEK293T cells expressing NanoLuc-ACKR2; 2 h on ice). Conditions: one partner purified.

| Binder | pIC50 |
| --- | --- |
| B1 | ≤ 8.01 |
| B2 | ≤ 8.51 |
| B3 | ≤ 7.04 |
